This data set concerns the target RPA (full-length heterotrimer) (Homo sapiens, UniProt P27694;P15927;P35244 1-616;1-270;1-121). The experiment in a line: fluorescence anisotropy; 1 mM MnCl2; Fluorescence anisotropy: nuclease buffer (composition and pH not in the material) with 1 mM MnCl2, RPA mixed 1:1 with 10 nM fluorescein-labelled DNA, 30 ul, room temperature, 10 min; sigmoidal fit. To be noted: protein: recombinant, copies: 1;1;1.

Chain of RPA (full-length heterotrimer) (P27694 whole entry, chain 1 of 3): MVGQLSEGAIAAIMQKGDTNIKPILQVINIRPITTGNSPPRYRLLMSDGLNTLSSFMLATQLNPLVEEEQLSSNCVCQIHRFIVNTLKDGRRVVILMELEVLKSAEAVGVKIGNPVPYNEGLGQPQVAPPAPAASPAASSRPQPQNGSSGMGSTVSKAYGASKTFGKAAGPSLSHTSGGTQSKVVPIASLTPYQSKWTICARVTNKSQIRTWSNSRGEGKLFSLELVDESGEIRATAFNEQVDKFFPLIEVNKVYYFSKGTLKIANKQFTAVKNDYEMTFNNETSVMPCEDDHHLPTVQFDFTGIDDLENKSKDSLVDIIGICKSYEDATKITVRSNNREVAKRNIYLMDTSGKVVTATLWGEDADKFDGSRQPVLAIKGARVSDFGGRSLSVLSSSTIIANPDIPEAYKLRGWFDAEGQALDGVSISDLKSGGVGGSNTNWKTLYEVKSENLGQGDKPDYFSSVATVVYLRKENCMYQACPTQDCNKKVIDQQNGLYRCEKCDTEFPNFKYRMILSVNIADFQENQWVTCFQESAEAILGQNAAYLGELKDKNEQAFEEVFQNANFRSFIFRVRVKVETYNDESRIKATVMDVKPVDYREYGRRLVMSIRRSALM
Chain of RPA (full-length heterotrimer) (P15927 whole entry, chain 2 of 3): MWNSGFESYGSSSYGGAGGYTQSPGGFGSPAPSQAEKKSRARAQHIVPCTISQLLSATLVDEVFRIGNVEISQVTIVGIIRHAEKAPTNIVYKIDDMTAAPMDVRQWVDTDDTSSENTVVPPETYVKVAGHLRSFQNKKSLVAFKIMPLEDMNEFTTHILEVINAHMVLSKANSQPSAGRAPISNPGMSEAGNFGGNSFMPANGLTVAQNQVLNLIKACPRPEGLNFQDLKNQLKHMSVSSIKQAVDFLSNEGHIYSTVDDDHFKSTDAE
Chain of RPA (full-length heterotrimer) (P35244 whole entry, chain 3 of 3): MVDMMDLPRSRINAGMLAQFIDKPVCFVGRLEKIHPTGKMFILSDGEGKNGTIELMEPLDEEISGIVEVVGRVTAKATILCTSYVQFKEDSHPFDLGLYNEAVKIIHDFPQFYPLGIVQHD

B1: simple fork (mixed)
DNA 1: ATAAATATTTTTTATTAATAATAGATCACCTTTCTTTCTCTTCTCCCCTT
DNA 2: TTCCCCTCCTCTCCTTCCTTCCTGATCTATTATTAATAAAAAATATTTAT
Regarding B1, the Kd (usually the constant that tells how readily two partners part at equilibrium) (fork: 28 bp duplex, 22 nt 3' arm (strand 1) and 22 nt 5' arm (strand 2)) is 6.3 nM.

B2: fork + lagging strand (mixed)
DNA 1: ATAAATATTTTTTATTAATAATAGATCACCTTTCTTTCTCTTCTCCCCTT
DNA 2: TTCCCCTCCTCTCCTTCCTTCCTGATCTATTATTAATAAAAAATATTTAT
?: GGAAGGAAGGAGAGGAGGGGAA
In the case of B2, the Kd (fork 1:2 2:3, 28 bp parental duplex, 22 bp lagging arm, 22 nt 3'-ssDNA arm on strand 1) was 6.2 nM.

For the origin of these results see publication PMC5510000, “RPA activates the XPF‐ERCC1 endonuclease to initiate processing of DNA interstrand crosslinks”.
